# B1: Synechococcus sp. PCC 7002 CrtE (geranylgeranyl pyrophosphate synthase) (enzyme, UniProt B1XJV9 1-302, looked up)
# chain: MVVADAHTQGFSLAQYLQEQKTIVETALDQSLVITEPVTIYEAMRYSLLAGGKRLRPILCLAACEMLGGTAAMAMNTACALEMIHTMSLIHDDLPAMDNDDLRRGKPTNHKVYGEDIAILAGDALLSYAFEYVARTPDVPAERLLQVIVRLGQAVGAEGLVGGQVVDLESEGKTDVAVETLNFIHTHKTGALLEVCVTAGAILAGAKPEEVQLLSRYAQNIGLAFQIVDDILDITATAEELGKTAGKDLEAQKVTYPSLWGIEKSQAEAQKLVAEAIASLEPYGEKANPLKALAEYIVNRKN
# notes: CrtE (type II geranylgeranyl pyrophosphate synthase) of Synechococcus sp; PCC 7002, gene crtE, locus SYNPCC7002_A1085; amplified from genomic DNA with primers from the ATG to the stop codon; predicted 302 residues; Expressed from pHUE as an N-terminal His-tagged ubiquitin fusion and freed by deubiquitinase; also called Syn7002 CrtE; Syn7002 GGPPS; source: E. coli BL21(DE3), purified (Ni-NTA, …)
# Molecular target: the molecule itself
# Experiment: SEC; HiLoad 16/60 Superdex 200 pg, 25 mM Tris-HCl pH 7.5, 500 mM NaCl, 4 °C, 1 mL/min; mass estimated from the elution volume
protein,measurement,value
B1,stoichiometry N,2

# From paper PMC7261888, “Crystal Structure of Geranylgeranyl Pyrophosphate Synthase (CrtE) Involved in Cyanobacterial Terpenoid Biosynthesis” (Frontiers in Plant Science, 2020)
